Test results as given in patent US20260275319A1 (MAX PLANCK GESELLSCHAFT ZUR F RDERUNG DER WISSENSCHAFTEN E V, published 2026).
Primed or numbered codes have the meaning given here. Ends that are not written are not given here. FITC′ = fluorescein isothiocyanate label; Ahx = NCCCCCC(=O)O

B3: M. jannaschii Adriase S1A mutant with C-terminal His-tag (enzyme)
chain: ALIICYYGKNGAVIGGDRRQIFFRGSEENRKILEEKLYSGEIKSEEELYKLAEKLNIKIIIEDDREKVRKISDSVVCGEVRSLGIDAKRRRVYATKGKCAIVDILNDTVTNQTIKEGFGIVVLGNRFLKKKAEEELKRTAKLFPMMPIQQIEDAIKEIFEKLKWHPTVSKEYDIYSVNKYEKNFEEVIKKDIESLFKYREQLRKQLIDFGKVMSIVNKIVKNGEIGVIKDGKLHLYDDYIAIDKIDPNPKVFKVVDVEGNFKDGDIVVIENGDMKIKGTNEKVTTKYIIIHKGSHHHHHH
notes: The entry is the S1A mutant itself
B4: (5)KDPGA(10) peptide, M. jannaschii MtrA-derived, C-terminal FITC (peptide)
peptide: KECLSKDPGAIDEDPFIIEL-{K(FITC)}
notes: Synthetic peptide (Genscript); also called (5)KDPGA(10F)
B5: M. jannaschii MtrA^Δ194-245 (enzyme)
chain: MHHHHHHGSMVMSMANKREPAPGWPIVSGEYVVGNPESCVGVVTLGSHGLEQACIDAGAAIAGPCHTENLGIEKVVANYISNPNIRFMILCGSEVQGHITGQCFKALWENGIGDDGGIIGAKGAIPFLENVNKEAVERFRRQIVEVVDLIDCEDIGKITQAIKECLSKDPGAIDEDPFIIELEGGKGGGEEEEGVIKPITPE
notes: For MST it was labelled with NT-647-NHS; also called MJ_0851
B6: (10)KDPGA(10) peptide, M. jannaschii MtrA-derived, C-terminal FITC (peptide)
peptide: ITQAIKECLSKDPGAIDEDPFIIEL-{K(FITC)}
B7: (15)KDPGA(10) peptide, M. jannaschii MtrA-derived, N-terminal FITC-Ahx (peptide)
peptide: {FITC′-Ahx}-EDIGKITQAIKECLSKDPGAIDEDPFIIEL
notes: Synthetic peptide (Genscript); also called (F15)KDPGA(10)
B9: (0)KDPGA(10) peptide, M. jannaschii MtrA-derived, C-terminal FITC (peptide)
peptide: KDPGAIDEDPFIIEL-{K(FITC)}
notes: Synthetic peptide (Genscript)

Key:
[1] = target: B5; assay: size-exclusion chromatography with light scattering (SEC-MALS) of the 1:1 molar mixture
[2] = target: T1, M. mazei Ub-(5)KDPGA(10) with N-terminal His-tag; assay: SDS-PAGE time course of Adriase with Ub-(5)KDPGA(10), band of the covalent conjugate
T1 chain: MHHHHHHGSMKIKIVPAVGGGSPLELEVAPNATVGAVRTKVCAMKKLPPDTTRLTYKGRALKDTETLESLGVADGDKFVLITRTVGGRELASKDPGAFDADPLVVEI

BSA = target: T2, BSA (UniProt P02769 25-607); assay: pulldown on Ni-NTA beads with His6-tagged Adriase, SDS-PAGE of flow-through, washes and eluate
T2 construct: also called control protein BSA
T2 sequence (P02769 25-607 limits assumed): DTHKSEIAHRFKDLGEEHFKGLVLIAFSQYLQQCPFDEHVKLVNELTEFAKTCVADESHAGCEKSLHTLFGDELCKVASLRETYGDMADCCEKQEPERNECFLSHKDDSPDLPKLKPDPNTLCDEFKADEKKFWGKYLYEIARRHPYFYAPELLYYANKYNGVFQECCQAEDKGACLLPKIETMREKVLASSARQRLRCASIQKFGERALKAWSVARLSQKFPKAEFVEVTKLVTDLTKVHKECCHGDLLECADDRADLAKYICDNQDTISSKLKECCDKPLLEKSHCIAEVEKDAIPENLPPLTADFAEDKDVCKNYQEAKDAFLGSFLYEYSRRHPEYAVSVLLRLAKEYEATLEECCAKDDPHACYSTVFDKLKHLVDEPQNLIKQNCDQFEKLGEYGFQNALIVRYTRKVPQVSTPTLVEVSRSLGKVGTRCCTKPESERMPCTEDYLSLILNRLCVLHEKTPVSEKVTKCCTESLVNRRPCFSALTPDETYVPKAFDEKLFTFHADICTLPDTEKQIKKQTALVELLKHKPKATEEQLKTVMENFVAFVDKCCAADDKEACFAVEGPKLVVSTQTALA

[3] = target: B9; assay: microscale thermophoresis (MST), fitted curve, peptide (0)KDPGA(10)
[4] = target: B7; assay: microscale thermophoresis (MST), fitted curve, peptide (15)KDPGA(10)
[5] = target: B6; assay: microscale thermophoresis (MST), fitted curve, peptide (10)KDPGA(10)
[6] = target: T3, M. jannaschii MtrA^Δ174-245 with N-terminal His6-tag (Methanocaldococcus jannaschii, UniProt Q58261 1-169); assay: microscale thermophoresis (MST), fitted curve, MtrA^Δ174-245
T3 sequence: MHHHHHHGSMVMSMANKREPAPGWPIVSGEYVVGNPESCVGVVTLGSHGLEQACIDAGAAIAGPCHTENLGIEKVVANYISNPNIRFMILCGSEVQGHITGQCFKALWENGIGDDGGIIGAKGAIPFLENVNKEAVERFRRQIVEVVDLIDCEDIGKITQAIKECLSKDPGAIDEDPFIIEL

[7] = target: B4; assay: microscale thermophoresis (MST), fitted curve, peptide (5)KDPGA(10)
[8] = target: B5; assay: microscale thermophoresis (MST), fitted curve
[9] = target: B3; assay: microscale thermophoresis (MST); table row (5)KDPGA(10)
[10] = target: B3; assay: microscale thermophoresis (MST), three measurements; table row MtrA
[11] = target: B3; assay: microscale thermophoresis (MST); table row (10)KDPGA(10)
[12] = target: B3; assay: microscale thermophoresis (MST); table row (15)KDPGA(10)
[13] = target: T4, M. jannaschii Adriase with C-terminal His-tag (Methanocaldococcus jannaschii, UniProt Q57968 2-293); assay: SDS-PAGE time course of the reaction in the presence of MtrA, band of the covalent conjugate
T4 construct: Active enzyme; also called unmodified Adriase; MJ_0548
T4 sequence: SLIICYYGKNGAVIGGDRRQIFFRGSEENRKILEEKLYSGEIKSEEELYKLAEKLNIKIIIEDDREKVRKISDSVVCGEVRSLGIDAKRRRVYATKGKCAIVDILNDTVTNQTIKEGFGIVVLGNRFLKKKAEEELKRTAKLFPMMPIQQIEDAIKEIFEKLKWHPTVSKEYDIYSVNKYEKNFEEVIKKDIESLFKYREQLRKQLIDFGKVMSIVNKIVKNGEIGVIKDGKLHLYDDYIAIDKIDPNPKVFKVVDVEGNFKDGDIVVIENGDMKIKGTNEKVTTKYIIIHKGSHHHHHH

[14] = target: B3; assay: microscale thermophoresis (MST); table row (0)KDPGA(10)
[15] = target: T5, MtrB of M. mazei (subunit of the MtrA-MtrH complex), from whole cell extract (Methanosarcina mazei); assay: pulldown from M. mazei whole cell extract with Strep-tagged Adriase, LC-MS/MS (Experiment 2.1)
T5 sequence (P80655 whole entry, looked up): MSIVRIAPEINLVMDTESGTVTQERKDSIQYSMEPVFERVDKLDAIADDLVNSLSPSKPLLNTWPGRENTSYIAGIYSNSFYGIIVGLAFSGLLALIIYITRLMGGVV

[16] = target: T6, MtrE of M. mazei (subunit of the MtrA-MtrH complex), from whole cell extract (Methanosarcina mazei); assay: as above
T6 sequence (P80651 whole entry, looked up): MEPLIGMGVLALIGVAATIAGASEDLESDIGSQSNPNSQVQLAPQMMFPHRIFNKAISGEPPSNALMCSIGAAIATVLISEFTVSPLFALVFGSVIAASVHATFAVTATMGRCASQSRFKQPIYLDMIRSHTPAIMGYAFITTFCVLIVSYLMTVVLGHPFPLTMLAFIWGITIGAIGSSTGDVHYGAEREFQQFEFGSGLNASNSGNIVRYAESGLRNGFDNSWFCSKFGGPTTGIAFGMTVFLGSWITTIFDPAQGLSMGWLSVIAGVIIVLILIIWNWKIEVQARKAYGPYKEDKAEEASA

[17] = target: T7, MtrG of M. mazei (subunit of the MtrA-MtrH complex), from whole cell extract (Methanosarcina mazei); assay: as above
T7 sequence (P80656 whole entry, looked up): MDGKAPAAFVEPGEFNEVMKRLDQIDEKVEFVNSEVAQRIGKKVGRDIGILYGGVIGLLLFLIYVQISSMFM

[18] = target: T8, MtrH of M. mazei (subunit of the MtrA-MtrH complex), from whole cell extract (Methanosarcina mazei); assay: as above
T8 sequence (P80650 1-316, looked up): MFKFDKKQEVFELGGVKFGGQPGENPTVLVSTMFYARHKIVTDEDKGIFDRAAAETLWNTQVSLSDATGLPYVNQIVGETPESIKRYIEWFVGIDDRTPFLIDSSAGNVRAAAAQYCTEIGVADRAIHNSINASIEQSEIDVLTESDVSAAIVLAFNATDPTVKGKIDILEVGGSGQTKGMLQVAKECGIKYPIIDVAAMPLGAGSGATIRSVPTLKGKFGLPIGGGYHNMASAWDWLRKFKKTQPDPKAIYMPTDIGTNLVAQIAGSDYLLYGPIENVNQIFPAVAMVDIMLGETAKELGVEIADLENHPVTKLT

B1: M. jannaschii Adriase without NTN, with C-terminal His-tag (enzyme)
chain: MEQLRKQLIDFGKVMSIVNKIVKNGEIGVIKDGKLHLYDDYIAIDKIDPNPKVFKVVDVEGNFKDGDIVVIENGDMKIKGTNEKVTTKYIIIHKGSHHHHHH
notes: also called Adriase^ΔNTN
[1]
  binding result: no binding

B2: M. mazei Adriase with C-terminal His-tag (enzyme)
chain: TLVIAFIGKNGAVMAGDMREITFEGEKPDREKLEKELYSGSIVTDEEMQKKAEEFGVKITVADCKEKVSERNGVLVGEVSSAEGGVVKKRRLYASAGNFAIAELINTEMTLTSQGKGSNFIAFGNEFTKQVANKCFKDNWTKKSNLQDAVKILILCMETVARKTASVSKQFMIVQTASNADVLKVVEKDRNCGSHHHHHH
notes: Active form without start-methionine; also called M. mazei Adriase-His6; MM_2909
[2]
  binding result: binds
BSA
  binding result: no binding

## B3
[3]
  EC50 (read off the curve): ~400 nM
[4]
  EC50 (read off the curve): ~80 nM
[5]
  EC50 (read off the curve): ~200 nM
[6]
  EC50 (read off the curve): ~600 nM
[7]
  EC50 (read off the curve): ~100 nM
[8]
  EC50 (read off the curve): ~200 nM

## B4
[9]
  Kd: 121 nM

## B5
[10]
  Kd: 129 nM

## B6
[11]
  Kd: 168 nM

## B7
[12]
  Kd: 74 nM

B8: M. jannaschii Ub-KDPGA(10) (other)
chain: MHHHHHHGSMKIKIVPAVGGGSPLELEVAPNATVGAVRTKVCAMKKLPPDTTRLTYKGRALKDTETLESLGVADGDKFVLITRTVGGCGEKDPGAIDEDPFIIEL
notes: also called Ubiquitin fused to KDPGA(10)
[13]
  binding result: binds

## B9
[14]
  Kd: 363 nM

B10: M. mazei Adriase with C-terminal Strep-tag (enzyme)
chain: TLVIAFIGKNGAVMAGDMREITFEGEKPDREKLEKELYSGSIVTDEEMQKKAEEFGVKITVADCKEKVSERNGVLVGEVSSAEGGVVKKRRLYASAGNFAIAELINTEMTLTSQGKGSNFIAFGNEFTKQVANKCFKDNWTKKSNLQDAVKILILCMETVARKTASVSKQFMIVQTASNADVLKVVEKDRNCGSWSHPQFEK
notes: also called MM_2909; Archaeal Peptide Recombinase
[15]
  Intensity (mass spectrometry): 1.4e+06 arbitrary units
[16]
  Intensity (mass spectrometry): 2.1e+06 arbitrary units
[17]
  Intensity (mass spectrometry): 860000 arbitrary units
[18]
  Intensity (mass spectrometry): 6e+07 arbitrary units
